Measurements taken from patent publication US20260152577A1.

Target: human CD3 on T cells (human) (UniProt P07766)
Assay: FACS on Jurkat cells

For OKT3-hIgG1 (antibody), the affinity was 0.27 nM.
